From patent publication US20250027068

B1: PRT-572 (protein)
chain: MANQEIRYSEATPSHITSVWTKGVTPPTQFIQNEDVLHAPYIANQGWYDITKTFNGKDDLLCGAATAGNMLHWWFDQNKEQIENYLKKHPEKQKINFNGEQMFDVKEAIDTKDSQTDSALFSYFKDKAFPYLSTKHLGVFPDHVIDMFINGYRLSLTNHGPTPVKEQTKDPRGGIFDAVFTRGDQSKLLTSRHDFKEKTLNEISQLIKQELTEGKALGLSHTYANVRINHVINLWGADFNAEGNLEAIYVTDSDSNASIGMKKYYVGVNSAGKVAISAKEIEGDNIGAQVLGLFTLSTGQDIWQQTNLEHHHHHH
B2: PRT-678 (protein)
chain: MQITTVWTKGVTPLTPEQFRYNNEEVIHAPYKAGQGWYDITKVFDGKDNLLCGAATAGNMLHWWFDQNKTEIEAYLSKHPEKQKIIFNNQELFDLKRAIDDKDSQTNSQLFNYFRDKAFPNLSARQLGVMPDLVLDMFINGYYLNVFKTQSTDVNRPYQDPDKRGGIFDDVFGKGDQTTLLTARHDLKNLGLEDISTIIKQELRNGRALALSHTYANVSISHVINLWGADFNAEGNLSAIYVTDSDANNSIGMKKYKVGYNAHGRVAISAKKIEGENIGAQVLGLFTLSSGKDIWQKLSLEHHHHHH
B3: PRT-4 (protein)
chain: MANQEIRYSEVTPYHVTSVWTKGVTPPANFTQGEDVFHAPYVANQGWYDITKTFNGKDDLLCGAATAGNMLHWWFDQNKEQIERYLKEHPEKQKINFNGEQMFDVKEAIDTKDSQLDSKLFEYFKEKAFPYLSTKHLGVFPDHVIDMFINGYRLSLTNHGPTPVKEGSKDPRGGIFDAVFTRGDQSKLLTSRHDFKEKNLKEISDLIKKELTEGKALALSHTYANVRINHVINLWGADFDSNGNLKAIYVTDSDSNASIGMKKYFVGVNSAGKVAISAKEIKEDNIGAQVLGLFTLSTGQDIWNQTN
B4: PRT-55 (protein)
chain: MANQEIRYSEVTPYHVTSVWTKGVTPPANFTQGEDVFHAPYVANQGWYDITKTFNGKDDLLCGAATAGNMLHWWFDQNKDQIDRYLEEHPEKAKINFNGEQMFDVKEAIDTKNHQLDSKLFEYFKEKAFPYLSTKHLGVFPDLVIDMFINGYRLSLTNHGPTPVKEGSKDPRGGFFDAVFGRGDQSKLLTSRHDFKEKNLKEISDLIKKELTEGKALGLSHTYANVRINHVINLWGADFDSNGNLKAIYVTDSDSNASIGMKKYFVGVNSAGKVAISAKEIKEDNIGAQVLGLFTLSTGQDSWNQTN
B5: PRT-58 (protein)
chain: MANQEIRYSEVTPYHVTSVWTKGVTPPANFTQGEDVFHAPYVANQGWYDINKTFNGKDDLLCGAATAGNMLHWWFDQNKEYIDRYLKEHPEKQKINFNGEQMFDVKEAIDTKNHQLDSKLFEYFKEKAFPYLSTKHLGVFPDLVLDMFINGYRLSLTNHGPTPVKEGSKDPRGGFFDDVFTRGDQSKLLTSRHDFKEKNLKEISDLIKKELTEGKALGLSHTYANVRINHVINLWGADFDSNGNLKAIYVTDSDSNASIGMKKYFVGVNSAGKVAISAKEIKEDNIGAQVLGLFTLSTGQDSWNQTN
B6: PRT-64 (protein)
chain: MANQEIRYSEVTPYHVTSVWTKGVTPPANFTQGEDVFHAPYVANQGWYDITKTFNGKDDLLCGAATAGNMLHWWFDQNKDQIDRYLEEHPEKQKINFNGEQMFDVKEAIDTKNHQLDSKLFEYFKEKAFPYLSTKHLGVFPDHVIDMFINGYRLSLTNHGPTPVKEGSKDPRGGIFDAVFTRGDQSKLLTSRHDFKEKNLKEISDLIKKELTEGKALGLSHTYANVRINHVINLWGADFDSNGNLKAIYVTDSDSNASIGMKKYFVGVNSAGKVAISAKEIKEDNIGAQVLGLFTLSTGQDSWNQTN
B7: PRT-61 (protein)
chain: MANQEIRYSEVTPYHVTSVWTKGVTPPANFTQGEDVFHAPYVANQGWYDINKTFNGKDDLLCGAATAGNMLHWWFDQNKEYIKRYLEEHPEKQKINFNGEQMFDVKEAIDTKNHQLDSKLFEYFKEKAFPYLSTKHLGVFPDHVLDMFINGYRLSLTNHGPTPVKEGSKDPRGGIFDAVFTRGDQSKLLTSRHDFKEKNLKEISDLIKKELTEGKALGLSHTYANVRINHVINLWGADFDSNGNLKAIYVTDSDSNASVGMKKYFVGVNSAGKVAISAKEIKEDNIGAQVLGLFTLSTGQDSWNQTN
B8: PRT-57 (protein)
chain: MANQEIRYSEVTPYHVTSVWTKGVTPPANFTQGEDVFHAPYVANQGWYDINKTFNGKDDLLCGAATAGNMLHWWFDQNKDYIDRYLEEHPEKQKINFNGEQMFDVKEAIDTKNHQLDSKLFEYFKEKAFPYLSTKHLGVFPDLVIDMFINGYRLSLTNHGPTPVKEGSKDPRGGFFDAVFGRGDQSKLLTSRHDFKEKNLKEISDLIKKELTEGKALGLSHTYANVRINHVINLWGADFDSNGNLKAIYVTDSDSNASIGMKKYFVGVNSAGKVAISAKEIKEDNIGAQVLGLFTLSTGQDSWNQTN
B9: PRT-63 (protein)
chain: MANQEIRYSEVTPYHVTSVWTKGVTPPANFTQGEDVFHAPYVANQGWYDITKTFNGKDDLLCGAATAGNMLHWWFDQNKEQIKRYLKEHPEKQKINFNGEQMFDVKEAIDTKNHQLDSKLFEYFKEKAFPYLSTKHLGVFPDHVLDMFINGYRLSLTNHGPTPVKEGSKDPRGGIFDDVFTRGDQSKLLTSRHDFKEKNLKEISDLIKKELTEGKALGLSHTYANVRINHVINLWGADFDSNGNLKAIYVTDSDSNASIGMKKYFVGVNSAGKVAISAKEIKEDNIGAQVLGLFTLSTGQDSWNQTN
B10: PRT-59 (protein)
chain: MANQEIRYSEVTPYHVTSVWTKGVTPPANFTQGEDVFHAPYVANQGWYDITKTFNGKDDLLCGAATAGNMLHWWFDQNKDQIKRYLEEHPEKQKINFNGEQMFDVKEAIDTKNHQLDSKLFEYFKEKAFPYLSTKHLGVFPDHVIDMFINGYRLSLTNHGPTPVKEGSKDPRGGFFDAVFTRGDQSKLLTSRHDFKEKNLKEISDLIKKELTEGKALGLSHTYANVRINHVINLWGADFDSNGNLKAIYVTDSDSNASIGMKKYFVGVNSAGKVAISAKEIKEDNIGAQVLGLFTLSTGQDSWNQTN
B11: PRT-56 (protein)
chain: MANQEIRYSEVTPYHVTSVWTKGVTPPANFTQGEDVFHAPYVANQGWYDINKTFNGKDDLLCGAATAGNMLHWWFDQNKEYIDRYLEEHPEKQKINFNGEQMFDVKEAIDTKNHQLDSKLFEYFKEKAFPYLSTKHLGVFPDLVLDMFINGYRLSLTNHGPTPVKEGSKDPRGGFFDAVFTRGDQSKLLTSRHDFKEKNLKEISDLIKKELTEGKALGLSHTYANVRINHVINLWGADFDSNGNLKAIYVTDSDSNASVGMKKYFVGVNSAGKVAISAKEIKEDNIGAQVLGLFTLSTGQDSWNQTN
B12: PRT-60 (protein)
chain: MANQEIRYSEVTPYHVTSVWTKGVTPPANFTQGEDVFHAPYVANQGWYDITKTFNGKDDLLCGAATAGNMLHWWFDQNKDQIKRYLEEHPEKAKINFNGEQMFDVKEAIDTKNHQLDSKLFEYFKEKAFPYLSTKHLGVFPDHVIDMFINGYRLSLTNHGPTPVKEGSKDPRGGIFDAVFGRGDQSKLLTSRHDFKEKNLKEISDLIKKELTEGKALGLSHTYANVRINHVINLWGADFDSNGNLKAIYVTDSDSNASIGMKKYFVGVNSAGKVAISAKEIKEDNIGAQVLGLFTLSTGQDSWNQTN
B13: PRT-62 (protein)
chain: MANQEIRYSEVTPYHVTSVWTKGVTPPANFTQGEDVFHAPYVANQGWYDITKTFNGKDDLLCGAATAGNMLHWWFDQNKDQIKRYLEEHPEKQKINFNGEQMFDVKEAIDTKNHQLDSKLFEYFKEKAFPYLSTKHLGVFPDHVIDMFINGYRLSLTNHGPTPVKEGSKDPRGGIFDAVFGRGDQSKLLTSRHDFKEKNLKEISDLIKKELTEGKALGLSHTYANVRINHVINLWGADFDSNGNLKAIYVTDSDSNASIGMKKYFVGVNSAGKVAISAKEIKEDNIGAQVLGLFTLSTGQDSWNQTN
B14: PRT-550 (protein)
chain: MANQEIRYSEETPKTITSIWTKGVTPPTDFIKNEDVLHAPYIANQGWYDITKTFNGKDDLLCGAATAGNMLHWWFDQNKEEIENYLKKHPEKQKINFNGEQMFDVKEAIDTKDSQTDSKLFEYFKDKAFPYLSTKHLGVFPDHVIDMFINGYRLSLTNHGPTPVKRGTKDPRGGIFDAVFTRGDQSKLLTARHDFKEKTLNEISDLIKQELTEGKALGLSHTYANVRINHVINLWGADFNSEGNLEAIYVTDSDSNASIGMKKYYVGVNAAGKVAISAKEIEGDNIGAQVLGLFTLSTGQDIWNQTNLEHHHHHH

Target: pooled human IgG

Compared with B1, B2 is lower in Enzyme Activity Endpoint Assay (purified): Fab′2: 936 ng/µL for the first, 56 ng/µL for the second.

B4 and B5 are the same in Enzyme Activity Endpoint Assay (purified): Fab′2: 0 ng/µL for the first, 0 ng/µL for the second.

Compared with B6, B7 is lower in Enzyme Activity Endpoint Assay (purified): Fab′2: 50 ng/µL for the first, 0 ng/µL for the second.

First: B8
Second: B9
The Enzyme Activity Endpoint Assay (purified): Fab′2 of the first is lower: 0 ng/µL for the first, 44 ng/µL for the second.

Compared with B10, B11 is lower in Enzyme Activity Endpoint Assay (purified): Fab′2: 6 ng/µL for the first, 0 ng/µL for the second.

Going from B12 to B13, the Enzyme Activity Endpoint Assay (purified): Fab′2 falls from 52 ng/µL to 15 ng/µL.

With B14 the Enzyme Activity Endpoint Assay (purified): Fab′2 was 891 ng/µL.

Compared with B1, B2 is lower in Enzyme Activity Endpoint Assay (purified): Fc: 478 ng/µL for the first, 0 ng/µL for the second.

First: B4
Second: B5
The Enzyme Activity Endpoint Assay (purified): Fc of the first is higher: 70 ng/µL for the first, 9 ng/µL for the second.

First: B6
Second: B7
The Enzyme Activity Endpoint Assay (purified): Fc of the first is higher: 123 ng/µL for the first, 55 ng/µL for the second.

Going from B8 to B9, the Enzyme Activity Endpoint Assay (purified): Fc rises from 52 ng/µL to 120 ng/µL.

First: B10
Second: B11
The Enzyme Activity Endpoint Assay (purified): Fc of the first is higher: 70 ng/µL for the first, 13 ng/µL for the second.

Going from B12 to B13, the Enzyme Activity Endpoint Assay (purified): Fc falls from 133 ng/µL to 94 ng/µL.

Work on B14 yielded an Enzyme Activity Endpoint Assay (purified): Fc of 389 ng/µL.

Going from B1 to B2, the Enzyme Activity Endpoint Assay (purified): IgG rises from 0 ng/µL to 39 ng/µL.

Compared with B4, B5 is higher in Enzyme Activity Endpoint Assay (purified): IgG: 19 ng/µL for the first, 125 ng/µL for the second.

Compared with B6, B7 is higher in Enzyme Activity Endpoint Assay (purified): IgG: 16 ng/µL for the first, 52 ng/µL for the second.

Compared with B8, B9 is lower in Enzyme Activity Endpoint Assay (purified): IgG: 44 ng/µL for the first, 13 ng/µL for the second.

Compared with B10, B11 is higher in Enzyme Activity Endpoint Assay (purified): IgG: 8 ng/µL for the first, 125 ng/µL for the second.

First: B12
Second: B13
The Enzyme Activity Endpoint Assay (purified): IgG of the first is higher: 16 ng/µL for the first, 8 ng/µL for the second.

Protein B14 has an Enzyme Activity Endpoint Assay (purified): IgG of 0 ng/µL.

B1 and B2 are the same in Enzyme Activity Endpoint Assay (purified): scIgG: 0 ng/µL for the first, 0 ng/µL for the second.

Going from B4 to B5, the Enzyme Activity Endpoint Assay (purified): scIgG falls from 57 ng/µL to 1 ng/µL.

Going from B6 to B7, the Enzyme Activity Endpoint Assay (purified): scIgG rises from 17 ng/µL to 50 ng/µL.

Compared with B8, B9 is lower in Enzyme Activity Endpoint Assay (purified): scIgG: 55 ng/µL for the first, 19 ng/µL for the second.

Compared with B10, B11 is lower in Enzyme Activity Endpoint Assay (purified): scIgG: 56 ng/µL for the first, 3 ng/µL for the second.

First: B12
Second: B13
The Enzyme Activity Endpoint Assay (purified): scIgG of the first is lower: 16 ng/µL for the first, 56 ng/µL for the second.

For B14, the Enzyme Activity Endpoint Assay (purified): scIgG was 0 ng/µL.

B3 gave an Enzyme Activity Endpoint Assay: Fab′2 of 21 ng/µL.

Work on B3 yielded an Enzyme Activity Endpoint Assay: Fc of 97 ng/µL.

In the case of B3, the Enzyme Activity Endpoint Assay: IgG is reported as 23 ng/µL.

In the case of B3, the Enzyme Activity Endpoint Assay: scIgG is reported as 42 ng/µL.
